One may read the EC50 as the concentration giving half of the maximal effect. A higher EC50 goes with a less potent agent.

From patent US20250388684A1 (published 2025) come the findings set out here.

Test [1] concerns the target T1, human CCR8 (C-C chemokine receptor type 8) (human, UniProt P51685 1-355). Briefly: FACS cell binding; human plasma 37°C 7 Day.
For test [2], the target named is T1, human CCR8 (C-C chemokine receptor type …). The test is described as follows: FACS cell binding; Control.
The target is the same in test [3]. The test is described as follows: FACS cell binding; human plasma 37°C 14 Day.

T1 sequence (P51685 whole entry): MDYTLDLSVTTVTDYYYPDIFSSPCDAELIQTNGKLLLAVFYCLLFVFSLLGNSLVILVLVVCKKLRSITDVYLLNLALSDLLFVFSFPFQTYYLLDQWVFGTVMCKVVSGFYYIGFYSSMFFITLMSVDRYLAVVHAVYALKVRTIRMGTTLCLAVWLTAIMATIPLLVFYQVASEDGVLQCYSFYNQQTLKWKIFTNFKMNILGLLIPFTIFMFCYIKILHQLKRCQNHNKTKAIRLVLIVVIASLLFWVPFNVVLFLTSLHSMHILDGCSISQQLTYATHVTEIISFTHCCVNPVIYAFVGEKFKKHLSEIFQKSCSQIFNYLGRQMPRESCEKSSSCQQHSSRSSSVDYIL

B1: 13F3H6-hz-eADCC (13F3H6-hz with ADCC-enhanced IgG1 Fc) (antibody)
heavy: EVQLVESGGGLVQPGESLRLSCAASGFTFNAYAMNWVRQAPGQGLEWVARIRTKSNNYATYYADSVKGRFTISRDDSKNTLYLEMNSLRAEDTAVYYCVRHKKVREGYAMDYWGQGTLVTVSSASTKGPSVFPLAPSSKSTSGGTAALGCLVKDYFPEPVTVSWNSGALTSGVHTFPAVLQSSGLYSLSSVVTVPSSSLGTQTYICNVNHKPSNTKVDKKVEPKSCDKTHTCPPCPAPELVGGPSVFLLPPKPKDTLMISRTPEVTCVVVDVSHEDPEVKFNWYVDGVEVHNAKTKPPEEQYNSTLRVVSVLTVLHQDWLNGKEYKCKVSNKALPAPIEKTISKAKGQPREPQVYTLPPSREEMTKNQVSLTCLVKGFYPSDIAVEWESNGQPENNYKTTPLVLDSDGSFFLYSKLTVDKSRWQQGNVFSCSVMHEALHNHYTQKSLSLSPGK
light: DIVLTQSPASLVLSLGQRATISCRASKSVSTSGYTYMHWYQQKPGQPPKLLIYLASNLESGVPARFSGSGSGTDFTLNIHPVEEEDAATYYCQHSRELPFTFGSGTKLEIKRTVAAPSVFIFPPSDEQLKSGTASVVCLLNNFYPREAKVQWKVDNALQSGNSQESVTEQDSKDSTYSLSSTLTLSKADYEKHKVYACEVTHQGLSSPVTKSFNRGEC
As to B1, the half-maximal effective concentration (EC50) in test [1] was 0.0425 mg/L; in test [2] it was 0.035 mg/L; in test [3], 0.039 mg/L.
